Where a chain is given by its changes, count along the chain named.
T1: Human ICAM-2 extracellular region (UniProt ID P13598; residues 25-223), C-terminally fused to His6 and … (human, UniProt P13598 25-223, biotinylated with BirA (Avi-tag) when used as selection antigen)
T1 construct: range 25-223; Expressed from EXPI293 cells; also called hICAM-2; not shown: C-terminal His6 and Avi-tags
T1 sequence (looked up): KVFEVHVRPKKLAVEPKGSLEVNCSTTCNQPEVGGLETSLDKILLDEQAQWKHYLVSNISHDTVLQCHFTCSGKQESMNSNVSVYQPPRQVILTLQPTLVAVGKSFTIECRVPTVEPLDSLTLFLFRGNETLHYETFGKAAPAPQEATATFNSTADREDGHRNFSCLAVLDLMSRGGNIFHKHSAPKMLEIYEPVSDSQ

T2: Pig ICAM-2 extracellular region (UniProt ID Q6VY03; residues 24-250), C-terminally fused to His6 and Avi-tags (pig, UniProt Q6VY03 24-250, Possibly biotinylated on the Avi-tag, as for human ICAM-2 in Example 1; this is not stated for pig. The tag is not included in the letters.)
T2 construct: also called pICAM-2
T2 sequence: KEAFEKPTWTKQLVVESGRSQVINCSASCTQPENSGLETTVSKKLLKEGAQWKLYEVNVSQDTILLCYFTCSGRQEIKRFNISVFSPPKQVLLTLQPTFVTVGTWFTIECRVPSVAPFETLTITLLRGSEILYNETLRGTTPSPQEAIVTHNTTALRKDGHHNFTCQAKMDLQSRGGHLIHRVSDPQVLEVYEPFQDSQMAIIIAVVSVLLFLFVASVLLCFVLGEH

T3: Endogenous human ICAM-2 on the surface of Primary Umbilical Vein Endothelial Cells (HUVEC) (human, UniProt P13598 25-275)
T3 construct: whole, on cells; also called cell surface ICAM-2; endogenous ICAM-2
T3 sequence (looked up): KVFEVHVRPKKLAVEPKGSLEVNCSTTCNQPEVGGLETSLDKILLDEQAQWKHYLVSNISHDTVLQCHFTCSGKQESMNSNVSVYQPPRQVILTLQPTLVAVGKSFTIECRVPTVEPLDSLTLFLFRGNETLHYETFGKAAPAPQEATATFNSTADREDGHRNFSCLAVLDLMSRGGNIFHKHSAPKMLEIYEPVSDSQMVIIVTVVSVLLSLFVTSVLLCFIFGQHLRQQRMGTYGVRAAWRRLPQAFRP

B1: Mb_ICAM2_S40 (designed binder)
chain: VSSVPTKLEVVAATPTSLLISWDAPAVTVLYYFITYGETGGNSPVQEFAVPGSKSTATISGLKPGVDYTITVYALSSKWRYSPISINYRT
modifications: biotin on the Avi-tag (enzymatic biotinylation with BirA) in the BLI and flow cytometry assays
notes: Monobody (FN3 domain from human 10FN3); Purified form carries N-terminal His6 and Avi tags; not shown: N-terminal tags containing His6 and Avi-tag
B2: Mb_ICAM2_S32 (designed binder)
chain: B1 chain with L75I, S76N, S77Q, K78Y, R80K
modifications: biotin on the Avi-tag (enzymatic biotinylation with BirA) in the BLI assay
notes: as for B1
B3: Mb_ICAM2_S36 (designed binder)
chain: B1 chain with G41H, N42G, P44A, V45Y, S76W, S77Y, W79G, R80I, Y81T
modifications: biotin on the Avi-tag (enzymatic biotinylation with BirA) in the BLI assay
notes: as for B1
B4: Mb_pICAM2_L1 (designed binder)
chain: VSSVPTKLEVVAATPTSLLISWDAGYWSSVAYYRITYGETGGNSPVQEFTVPGSSSTATISGLKPGVDYTITVYAMTSGYSWYSPISINYRT
notes: Identified by yeast display
B5: Mb_pICAM2_L6 (designed binder)
chain: B4 chain with G53S, M76Q, G79M
notes: Identified by yeast display
B6: Mb_pICAM2_L11 (designed binder)
chain: B4 chain with G53S
notes: Identified by yeast display
B7: Mb_pICAM2_L14 (designed binder)
chain: B4 chain with A31S, S56Y, M76Q, G79Y
notes: Identified by yeast display
B8: Mb_pICAM2_L22 (designed binder)
chain: B4 chain with S56Y, M76K, G79D
notes: Identified by yeast display
B9: Mb_ICAM2_S38 (designed binder)
chain: VSSVPTKLEVVAATPTSLLISWDAPAVTVLYYFITYGETGPASYGAQEFAVPGSKSTATISGLKPGVDYTITVYAISNKWKYSPISINYRT
modifications: biotin on the Avi-tag (enzymatic biotinylation with BirA) in the BLI assay
notes: as for B1
B10: Negative control monobody (SEQ ID NO: 34) (designed binder)
chain: VSSVPTKLEVVAATPTSLLISWDASSSSVSYYRITYGETGGNSPVQEFTVPGSKSTATISGLKPGVDYTITVYASSSSSSSSSSSKPISINYRT
notes: Tested conjugated to streptavidin DyLight 650; The tags and biotinylation of this control are not described

Assays:
[1] = biological target: T1, Human ICAM-2 extracellular region …; assay: BLI (Octet): biotinylated monobody on streptavidin tips, human ICAM-2 in solution; global 1:1 fit without the highest concentration
Method: (§1) The four monobody samples identified in Example 1 were produced as purified proteins with N-terminal tags containing His6 and Avi-tag, followed by enzymatic biotinylation using the BirA enzyme. The proteins were immobilized on streptavidin-coated biolayer interferometry (BLI) tips using an Octet instrument (Sartorius) and their interaction with human ICAM-2 was monitored with the instrument (FIG. 1).
FIG. 1 depicts BLI sensorgrams. The global fitting of the 1:1 binding model was performed on the data after excluding the highest concentration sensorgrams, because the association rates in the highest concentration data are too high for accurate fitting. The KD values from the global fitting are shown.

[2] = biological target: T2, Pig ICAM-2 extracellular region …; assay: BLI (Octet) of the monobody with pig ICAM-2
Source text: as §1
Biolayer interferometry (BLI) for five of the monobodies (Mb_pICAM2_L1, Mb_pICAM2_L6, Mb_pICAM2_L11, Mb_pICAM2_L14, and Mb_pICAM2_L22) was carried out using the procedures and equipment described above (FIG. 5).

[3] = biological target: T3, Endogenous human ICAM-2 on the surface …; assay: Flow cytometry (MFI) of negative control monobody bound to streptavidin DyLight 650 on HUVEC; concentration as monomer [panel B]
Method: Whether Mb_ICAM2_S40 detected endogenous ICAM-2 molecules expressed on the surface of human cells was tested. […] The expression of ICAM-2 in HUVEC but not in Expi293 was confirmed using a commercially available anti-hICAM-2 antibody (FIG. 2D).

Binder	Kd [1] [nM]	Kd [2] [nM]	other results
B1			apparent Kd (pooled screen) [1]: 14 nM
B2	5.9		
B3	4.5		
B4		19.3	
B5		14	
B6		12.1	
B7		11.8	
B8		16.8	
B9	26		
B10			binding result [3]: no binding (tested: 200 nM)

— US20260250391A1 (NEW YORK UNIVERSITY, published 2026)
